Residue numbers refer to the chain shown, from its start. In names and notes the source's numbering stands.
B1: target 1 MT 5'PFS GUG 3'PFS GCA (mixed)
RNA 1: CACCCGUGCAAAAAUGCAGGGGUCUAAAACUGAGCGGAUAACCUCUCUAUGG
RNA 2: GGGAAUGGAUCCACAUCUACGAAUUCGUGCCAUAGAGAGGUUAUCCGCUCAGCAAGAUCGGAAGAGCACACGU
B2: target 1 MT 5'PFS CAC 3'PFS CUG (mixed)
RNA 1: B1 RNA 1
RNA 2: B1 RNA 2 with G27C, U28A, G29C, G52C, C53U, A54G
B3: target 1 MT 5'PFS GUA 3'PFS AUU (mixed)
RNA 1: B1 RNA 1
RNA 2: B1 RNA 2 with G29A, G52A, C53U, A54U
B4: target 1 MT 5'PFS GAA 3'PFS ACU (mixed)
RNA 1: B1 RNA 1
RNA 2: B1 RNA 2 with U28A, G29A, G52A, A54U
B5: target 1 MT 5'PFS ACG 3'PFS UCG (mixed)
RNA 1: B1 RNA 1
RNA 2: B1 RNA 2 with G27A, U28C, G52U, A54G
B6: target 1 MT 5'PFS GCA 3'PFS GGA (mixed)
RNA 1: B1 RNA 1
RNA 2: B1 RNA 2 with U28C, G29A, C53G
B7: target 1 MT 5'PFS GGG 3'PFS AUA (mixed)
RNA 1: B1 RNA 1
RNA 2: B1 RNA 2 with U28G, G52A, C53U
B8: target 1 MT 5'PFS GUA 3'PFS AUA (mixed)
RNA 1: B1 RNA 1
RNA 2: B1 RNA 2 with G29A, G52A, C53U
B9: target 1 MT 5'PFS GAA 3'PFS ACC (mixed)
RNA 1: B1 RNA 1
RNA 2: B1 RNA 2 with U28A, G29A, G52A, A54C
B10: target 1 MT 5'PFS UCC 3'PFS CUC (mixed)
RNA 1: B1 RNA 1
RNA 2: B1 RNA 2 with G27U, U28C, G29C, G52C, C53U, A54C
B11: target 1 MT 5'PFS AGG 3'PFS UCU (mixed)
RNA 1: B1 RNA 1
RNA 2: B1 RNA 2 with G27A, U28G, G52U, A54U
B12: target 1 MT 5'PFS GCG 3'PFS UGU (mixed)
RNA 1: B1 RNA 1
RNA 2: B1 RNA 2 with U28C, G52U, C53G, A54U
B13: target 1 MT 5'PFS GUC 3'PFS ACC (mixed)
RNA 1: B1 RNA 1
RNA 2: B1 RNA 2 with G29C, G52A, A54C
B14: target 1 MT 5'PFS CUU 3'PFS CAG (mixed)
RNA 1: B1 RNA 1
RNA 2: B1 RNA 2 with G27C, G29U, G52C, C53A, A54G
B15: target 1 insA 3' of 8,insC 3' of 1 (mixed)
RNA 1: B1 RNA 1
RNA 2: GGGAAUGGAUCCACAUCUACGAAUUCGUACCAUAGAGAGGUUAUACCGCUCACCCGAGAUCGGAAGAGCACACGU
B16: target 1 MT 5'PFS GGA 3'PFS CGC (mixed)
RNA 1: B1 RNA 1
RNA 2: B1 RNA 2 with U28G, G29A, G52C, C53G, A54C
B17: target 1 MT 5'PFS GGG 3'PFS AUC (mixed)
RNA 1: B1 RNA 1
RNA 2: B1 RNA 2 with U28G, G52A, C53U, A54C
B18: target 1 MT 5'PFS AGG 3'PFS UCG (mixed)
RNA 1: B1 RNA 1
RNA 2: B1 RNA 2 with G27A, U28G, G52U, A54G
B19: target 1 MT 5'PFS CAC 3'PFS CUA (mixed)
RNA 1: B1 RNA 1
RNA 2: B1 RNA 2 with G27C, U28A, G29C, G52C, C53U
B20: target 1 MT 5'PFS GGA 3'PFS CGA (mixed)
RNA 1: B1 RNA 1
RNA 2: B1 RNA 2 with U28G, G29A, G52C, C53G
B21: target 1 MT 5'PFS CCU 3'PFS UUA (mixed)
RNA 1: B1 RNA 1
RNA 2: B1 RNA 2 with G27C, U28C, G29U, G52U, C53U
B22: target 1 MT 5'PFS UAA 3'PFS CCG (mixed)
RNA 1: B1 RNA 1
RNA 2: B1 RNA 2 with G27U, U28A, G29A, G52C, A54G
B23: target 1 MT 5'PFS GGG 3'PFS AUG (mixed)
RNA 1: B1 RNA 1
RNA 2: B1 RNA 2 with U28G, G52A, C53U, A54G
B24: target 1 MT 5'PFS GUA 3'PFS AUC (mixed)
RNA 1: B1 RNA 1
RNA 2: B1 RNA 2 with G29A, G52A, C53U, A54C
B25: target 1 insC 3' of 17,insU 3' of 4 (mixed)
RNA 1: B1 RNA 1
RNA 2: GGGAAUGGAUCCACAUCUACGAAUUCGUACCAUAGCAGAGGUUAUCCGCUUCACCGAGAUCGGAAGAGCACACGU
B26: target 1 MT 5'PFS GUA 3'PFS AUG (mixed)
RNA 1: B1 RNA 1
RNA 2: B1 RNA 2 with G29A, G52A, C53U, A54G
B27: target 1 MT 5'PFS GGA 3'PFS CGG (mixed)
RNA 1: B1 RNA 1
RNA 2: B1 RNA 2 with U28G, G29A, G52C, C53G, A54G
B28: target 1 MT 5'PFS GGC 3'PFS UUU (mixed)
RNA 1: B1 RNA 1
RNA 2: B1 RNA 2 with U28G, G29C, G52U, C53U, A54U
B29: target 1 MT 5'PFS GUC 3'PFS ACG (mixed)
RNA 1: B1 RNA 1
RNA 2: B1 RNA 2 with G29C, G52A, A54G
B30: target 1 MT 5'PFS CCU 3'PFS UUC (mixed)
RNA 1: B1 RNA 1
RNA 2: B1 RNA 2 with G27C, U28C, G29U, G52U, C53U, A54C
B31: target 1 MT 5'PFS CCU 3'PFS UUG (mixed)
RNA 1: B1 RNA 1
RNA 2: B1 RNA 2 with G27C, U28C, G29U, G52U, C53U, A54G
B32: target 1 MT 5'PFS UAA 3'PFS CCU (mixed)
RNA 1: B1 RNA 1
RNA 2: B1 RNA 2 with G27U, U28A, G29A, G52C, A54U
B33: target 1 insU 3' of 22,insA 3' of 5 (mixed)
RNA 1: B1 RNA 1
RNA 2: B25 RNA 2 with C31U, A32C, U33A, A34U, G35A, C36G, C49A, U50C
B34: target 1 MT 5'PFS GAA 3'PFS ACG (mixed)
RNA 1: B1 RNA 1
RNA 2: B1 RNA 2 with U28A, G29A, G52A, A54G
B35: target 1 MT 5'PFS UCC 3'PFS CUG (mixed)
RNA 1: B1 RNA 1
RNA 2: B1 RNA 2 with G27U, U28C, G29C, G52C, C53U, A54G
B36: target 1 C6U,G12C (mixed)
RNA 1: B1 RNA 1
RNA 2: B1 RNA 2 with G29A, G40C, C46U, G52C, A54G
B37: target 1 MT 5'PFS GGG 3'PFS AUU (mixed)
RNA 1: B1 RNA 1
RNA 2: B1 RNA 2 with U28G, G52A, C53U, A54U
B38: target 1 MT 5'PFS UUA 3'PFS UGA (mixed)
RNA 1: B1 RNA 1
RNA 2: B1 RNA 2 with G27U, G29A, G52U, C53G
B39: target 1 MT 5'PFS ACG 3'PFS UCU (mixed)
RNA 1: B1 RNA 1
RNA 2: B1 RNA 2 with G27A, U28C, G52U, A54U

Target: T1, EsCas13d, nuclease-dead (Eubacterium siraeum, UniProt B0MS50, R295A;H300A;R849A;H854A)
T1 sequence: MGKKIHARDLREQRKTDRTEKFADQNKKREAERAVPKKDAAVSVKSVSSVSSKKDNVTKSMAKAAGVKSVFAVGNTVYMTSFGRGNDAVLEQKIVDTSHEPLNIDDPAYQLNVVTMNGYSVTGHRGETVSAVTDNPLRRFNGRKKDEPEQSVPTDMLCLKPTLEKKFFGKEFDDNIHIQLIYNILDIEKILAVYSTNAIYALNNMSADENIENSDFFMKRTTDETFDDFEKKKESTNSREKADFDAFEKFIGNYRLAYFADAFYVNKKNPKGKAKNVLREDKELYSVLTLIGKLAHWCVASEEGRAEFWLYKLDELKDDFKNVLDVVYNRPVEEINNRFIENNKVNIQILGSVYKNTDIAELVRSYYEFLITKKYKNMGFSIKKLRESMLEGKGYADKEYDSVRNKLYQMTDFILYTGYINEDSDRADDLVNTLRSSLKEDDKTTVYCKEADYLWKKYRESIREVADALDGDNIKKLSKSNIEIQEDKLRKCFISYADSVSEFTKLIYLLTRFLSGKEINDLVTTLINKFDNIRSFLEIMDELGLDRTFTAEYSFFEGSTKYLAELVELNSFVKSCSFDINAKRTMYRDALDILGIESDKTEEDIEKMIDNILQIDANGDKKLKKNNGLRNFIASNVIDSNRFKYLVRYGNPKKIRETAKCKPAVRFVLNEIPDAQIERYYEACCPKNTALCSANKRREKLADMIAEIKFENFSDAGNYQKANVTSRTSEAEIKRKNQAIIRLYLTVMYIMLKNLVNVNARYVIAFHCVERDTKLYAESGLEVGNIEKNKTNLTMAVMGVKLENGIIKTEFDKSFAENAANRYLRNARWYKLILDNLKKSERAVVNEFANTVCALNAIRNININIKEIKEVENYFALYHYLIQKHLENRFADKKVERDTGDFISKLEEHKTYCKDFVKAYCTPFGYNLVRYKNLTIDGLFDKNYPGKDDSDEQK
Test: crRNA (strand 1, pre-loaded); Mg2+; 40 mM Tris-HCl pH 7.5, 150 mM NaCl, 6 mM MgCl2, 1 mM DTT, 0.1% Tween-20, 0.2 mg/ml BSA; 25 C; 10 min per concentration, then washed
Conditions: tags: His6-TwinStrep-SUMO cleaved; N-terminal SNAP kept (SNAP-Surface 488); label: 3' end held by stalled T7 RNA polymerase

Binder	Kd [nM]
B1	26 ± 4
B2	~17
B3	12.9 ± 1.15
B4	34 ± 12.5
B5	24 ± 6
B6	80 ± 40
B7	32 ± 6.5
B8	14.1 ± 1.15
B9	~80
B10	~24
B11	30.5 ± 9
B12	41.5 ± 8.5
B13	25.8 ± 4.2
B14	74 ± 30
B15	14.7 ± 0.7
B16	28.5 ± 11
B17	35.5 ± 9.5
B18	51 ± 21
B19	16 ± 5
B20	33.5 ± 10

Binder	Kd [nM]
B21	14.3 ± 2.75
B22	47.5 ± 15.5
B23	26.5 ± 4
B24	14.8 ± 1.45
B25	46 ± 4
B26	14 ± 0.85
B27	20.6 ± 3.8
B28	11.3 ± 1.85
B29	25 ± 6.6
B30	32.5 ± 9.5
B31	11.7 ± 2.5
B32	22 ± 11
B33	18.8 ± 1.6
B34	~82
B35	14.5 ± 4.5
B36	12.9 ± 1.1
B37	17.3 ± 2.1
B38	100 ± 40
B39	9.65 ± 2.55
